According to PMC6325625, “The traffic ATPase PilF interacts with the inner membrane platform of the DNA translocator and type IV pili from Thermus thermophilus” (FEBS Open Bio, 2018):
Blank lines part the entries; values can stand above or below the molecule they belong to.

Legend:
[1] = molecular target: His6-PilM-PilN-Strep complex (Thermus thermophilus HB27) (UniProt Q8VRL8)
[2] = molecular target: His6-PilF (traffic ATPase PilF, hexameric complex) (Thermus thermophilus); experiment: native gel or EMSA; clear-native PAGE (3-15%) of purified His6-PilF; data not shown
[3] = molecular target: His6-PilM(K26A)-PilN-Strep complex (Thermus thermophilus HB27) (UniProt Q8VRL8)
PilM [4] = molecular target: T1, PilM (Thermus thermophilus, UniProt Q72IW8, K26A); experiment: UV photo cross-linking and autoradiography; luciferase ATP content; conditions: labelled compound [alpha-32P]-ATP; MN buffer pH 7.5, 5 mM MgCl2, 0.02% DDM, on ice; binding not detected
T1 construct: full length, N-terminal His6 tag kept; pET28a, E. coli BL21 (DE3), Ni-NTA from the soluble fraction of cells co-expressing pilN-Strep; about 44 kDa monomer
T1 sequence (Q72IW8 entry or part of it K26A): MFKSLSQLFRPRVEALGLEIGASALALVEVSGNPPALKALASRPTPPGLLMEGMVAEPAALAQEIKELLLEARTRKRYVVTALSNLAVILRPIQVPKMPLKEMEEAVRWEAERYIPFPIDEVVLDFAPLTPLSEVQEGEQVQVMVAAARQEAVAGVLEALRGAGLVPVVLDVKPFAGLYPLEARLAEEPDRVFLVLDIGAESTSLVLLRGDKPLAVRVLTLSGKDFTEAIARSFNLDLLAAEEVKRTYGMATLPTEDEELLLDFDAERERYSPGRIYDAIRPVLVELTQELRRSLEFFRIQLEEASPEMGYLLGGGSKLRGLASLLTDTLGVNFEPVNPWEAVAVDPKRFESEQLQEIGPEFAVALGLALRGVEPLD

PilM [5] = molecular target: PilM (Thermus thermophilus, UniProt Q72IW8); experiment: luciferase assay of co-purified ATP after TCA precipitation; also UV photo cross-linking with [alpha-32P]-ATP; format: binding; conditions: ATP retained from E. coli, none added
[6] = molecular target: PilN-Strep (Thermus thermophilus HB27) (UniProt Q8VRL7); experiment: native gel or EMSA; 5-20% clear-native PAGE of purified His6-PilMN-Strep, His6-PilMNO-Strep and His6-PilM; bands of PilMN cut out and run on 14% SDS/PAGE

ATPase activity of PilF (malachite green assay, 68 °C, 66.7 pmol PilF hexamer) with increasing amounts of PilMN, up to a ratio of 1 : 20 (PilF complex : PilMN complex) [1]: 2 fold
stoichiometry N [2]: 6
ATPase activity of the PilF hexamer mixed with PilM (K26A)N complex in a ratio of 1 : 20 [3]: 2 fold
Molecule: His6-PilF (traffic ATPase PilF, hexameric complex) (enzyme)

UV photo cross-linking and autoradiography; luciferase ATP content (PilM [4]): no ATP was found in the PilMK26A variant
ATP per PilM monomer (PilM [5]): 0.89 ± 0.35 ATP per PilM monomer
Molecule: Nc1ncnc2c1ncn2[C@@H]1O[C@H](COP(=O)(O)OP(=O)(O)OP(=O)(O)O)[C@@H](O)[C@H]1O [ATP]

stoichiometry N [6]: 1 PilM : PilN
stoichiometry PilM : PilN of the larger (~195 kDa) oligomer, copies of each chain (copies of each chain) [6]: 3
B1: His6-PilM (soluble PilM from cells expressing His6-pilMN-Strep) (natural protein)
chain: MFKSLSQLFRPRVEALGLEIGASALKLVEVSGNPPALKALASRPTPPGLLMEGMVAEPAALAQEIKELLLEARTRKRYVVTALSNLAVILRPIQVPKMPLKEMEEAVRWEAERYIPFPIDEVVLDFAPLTPLSEVQEGEQVQVMVAAARQEAVAGVLEALRGAGLVPVVLDVKPFAGLYPLEARLAEEPDRVFLVLDIGAESTSLVLLRGDKPLAVRVLTLSGKDFTEAIARSFNLDLLAAEEVKRTYGMATLPTEDEELLLDFDAERERYSPGRIYDAIRPVLVELTQELRRSLEFFRIQLEEASPEMGYLLGGGSKLRGLASLLTDTLGVNFEPVNPWEAVAVDPKRFESEQLQEIGPEFAVALGLALRGVEPLD
